For two molecules, Kd and koff results are on record in publication PMC9368766 (2022).

Test [1] addresses T-Fc. The experiment in a line: BLI; deglycosylated FGFR1-Fc. For orientation: Biolayer interferometry detects binding as a change in optical thickness at a sensor tip.
For test [2], the target named is KCK-FGF1.E (UniProt P05230). The experiment in a line: BLI; deglycosylated FGFR1-Fc.
In test [3] the target is T-Fc. The experiment in a line: BLI.
Test [4] has as its target KCK-FGF1.E (UniProt P05230). The experiment in a line: BLI.

B1: de-glycosylated FGFR1-Fc (Fc fusion)
chain: RPSPTLPEQAQPWGAPVEVESFLVHPGDLLQLRCRLRDDVQSINWLRDGVQLAESNRTRITGEEVEVQDSVPADSGLYACVTSSPSGSDTTYFSVNVSDALPSSEDDDDDDDSSSEEKETDNTKPNRMPVAPYWTSPEKMEKKLHAVPAAKTVKFKCPSSGTPNPTLRWLKNGKEFKPDHRIGGYKVRYATWSIIMDSVVPSDKGNYTCIVENEYGSINHTYQLDVVERSPHRPILQAGLPANKTVALGSNVEFMCKVYSDPQPHIQWLKHIEVNGSKIGPDNLPYVQILKTAGVNTTDKEMEVLHLRNVSFEDAGEYTCLAGNSIGLSHHSAWLTVLEALEERPAVMTSPLYLE
modifications: N-glycans enzymatically removed with PNGase F
As to B1, in the test with T-Fc [1], the equilibrium dissociation constant (Kd) (as a rule, the constant that tells how readily two partners part at equilibrium) stood at 0.669 nM and the koff – broadly, the first-order rate constant of dissociation – amounted to 0.000448 s⁻¹. In the test with KCK-FGF1.E [2], this molecule yielded an off-rate (koff) of 0.00222 s⁻¹.

B2: Fully glycosylated extracellular domain of FGFR1 fused to the Fc fragment of human IgG1: FGFR1 IIIc (FGFR1-Fc) (Fc fusion)
chain: RPSPTLPEQAQPWGAPVEVESFLVHPGDLLQLRCRLRDDVQSINWLRDGVQLAESNRTRITGEEVEVQDSVPADSGLYACVTSSPSGSDTTYFSVNVSDALPSSEDDDDDDDSSSEEKETDNTKPNRMPVAPYWTSPEKMEKKLHAVPAAKTVKFKCPSSGTPNPTLRWLKNGKEFKPDHRIGGYKVRYATWSIIMDSVVPSDKGNYTCIVENEYGSINHTYQLDVVERSPHRPILQAGLPANKTVALGSNVEFMCKVYSDPQPHIQWLKHIEVNGSKIGPDNLPYVQILKTAGVNTTDKEMEVLHLRNVSFEDAGEYTCLAGNSIGLSHHSAWLTVLEALEERPAVMTSPLYLE
modifications: N-glycosylated (fully glycosylated)
In the case of B2, the Kd with T-Fc [3] is 0.246 nM; with KCK-FGF1.E [4], 3.19 nM. For the same molecule, in the test with KCK-FGF1.E [4], the koff is 0.000304 s⁻¹.
